Consider four molecules from publication PMC4429812 (Biochemistry, 2015).

Test [1] addresses amphiphysin clathrin-box peptide clathrin-box peptide (UniProt P49418). Conditions: cited from earlier work.
The target in test [2] is T1, clathrin N-terminal domain (TD) of the clathrin heavy chain, bovine, residues 1-363 (bovine, UniProt P49951 1-363).
T1 sequence (looked up): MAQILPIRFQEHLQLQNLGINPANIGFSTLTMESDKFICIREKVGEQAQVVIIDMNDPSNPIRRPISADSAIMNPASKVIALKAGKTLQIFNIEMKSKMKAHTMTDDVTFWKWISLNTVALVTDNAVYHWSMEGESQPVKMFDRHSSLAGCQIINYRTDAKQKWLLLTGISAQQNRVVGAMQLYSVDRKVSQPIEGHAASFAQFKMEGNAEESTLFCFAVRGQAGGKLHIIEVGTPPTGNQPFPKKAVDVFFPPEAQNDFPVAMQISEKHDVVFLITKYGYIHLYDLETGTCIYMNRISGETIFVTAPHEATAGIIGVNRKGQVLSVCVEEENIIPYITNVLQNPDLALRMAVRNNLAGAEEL
As to the kind of experiment: NMR titration.

The target of test [3] is T1, clathrin N-terminal domain (TD) of the …. Nature of the test: ITC. (In ITC the heat of successive injections is recorded.)

Where “and” joins values, the source holds several entries; their conditions need not be identical. Identical values can stand only once.

Chain of amphiphysin clathrin-box peptide clathrin-box peptide (P49418 whole entry, looked up, the tested form may be a part): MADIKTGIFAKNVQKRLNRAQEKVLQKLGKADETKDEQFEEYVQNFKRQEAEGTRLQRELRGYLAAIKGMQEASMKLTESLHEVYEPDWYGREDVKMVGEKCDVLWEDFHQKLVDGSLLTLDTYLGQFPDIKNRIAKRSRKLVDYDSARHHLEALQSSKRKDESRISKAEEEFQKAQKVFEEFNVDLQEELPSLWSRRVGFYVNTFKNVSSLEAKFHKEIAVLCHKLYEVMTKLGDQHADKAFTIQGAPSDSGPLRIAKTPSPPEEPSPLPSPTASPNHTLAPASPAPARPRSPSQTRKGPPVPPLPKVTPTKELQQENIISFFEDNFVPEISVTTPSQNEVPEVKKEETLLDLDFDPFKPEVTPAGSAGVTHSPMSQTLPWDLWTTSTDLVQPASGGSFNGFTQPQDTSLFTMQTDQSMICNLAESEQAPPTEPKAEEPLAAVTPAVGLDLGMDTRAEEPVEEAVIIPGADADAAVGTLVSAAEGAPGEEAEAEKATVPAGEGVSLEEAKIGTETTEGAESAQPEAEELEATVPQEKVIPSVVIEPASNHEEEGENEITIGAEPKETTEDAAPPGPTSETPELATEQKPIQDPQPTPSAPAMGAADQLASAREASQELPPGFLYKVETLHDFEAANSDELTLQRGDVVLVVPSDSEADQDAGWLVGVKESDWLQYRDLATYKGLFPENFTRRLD

With “clathrin heavy chain N-terminal domain (from UniProt P49951)”, the Kd in test [1] was 22 µM.

B1: AP2 peptide (clathrin-box peptide from the hinge of the AP2 β2 subunit, residues 619-644) (peptide)
peptide: CQVIPSQGDLLGDLLNLDLGPPVNVPQ
As to B1, in test [2], the Kd came out at 867 ± 246 µM and the “stoichiometry N” value was found to be 2.6 ± 0.4. Moreover, in test [3], the Kd is 420 µM and 474 µM; the dH was -2.8 kcal/mol; the “stoichiometry N” value was 3.01 and 3.

B2: AP180 peptide 2 (residues 655-679 of mouse AP180) (peptide)
peptide: CPQAVASSSASADLLAGFGGSFMAPS
As to B2, in test [2], binding was characterised by a dissociation constant (Kd) of 899 ± 529 µM and the “stoichiometry N” value was found to be 3.7 ± 0.6.

B3: AP180 peptide 1 (residues 627-652 of mouse AP180) (peptide)
peptide: CSPAKAESSGVIDLFGDAFGSGASETQ
Turning to B3, in test [2], the Kd is 829 ± 221 µM and the “stoichiometry N” value was 3.9 ± 0.3.

By Kd is commonly meant the concentration at which binding is half-saturated. As usually defined, the stoichiometry N is the number of molecules, sites or subunits per partner or assembly.
